The chains are these.
B2: GFP-RILP (mouse RILP in pEGFP-C1) (other, UniProt Q5ND29 1-369, looked up)
chain: MEPRRAAPRLPSQASSSVGAGSAAELVYHLAGALGTELQGLARRFGPDAAAGLVPLVVRALELLEKAAVGPAPDSLQVSAQQAEVELRRLREENQRLRQELGSGPQEERALLRQLKEVTDRQRDELRAHNRDLQRRSQETEALQEQLQRLLLINSELRHKLAAVQTQLRAAQDRERERQIAQDGSSQLAKEQSLEPDAATSDDPVDTQKQPGNLPEAVQCGFSREELKQILQERNELKANVFLLKEELAYFQRELLTDHRVPGLLLEAMKVAVKKQRRKIKAKMLGTPEEAESSEDEDGSWLLLSNDKEDVPLVPESRIQNFFGLWYRGETEAPEAETSNPASSSLQKGEETPQQPHLQPVNSPPAPNS
notes: Expressed in transfected RBL cells; tested in cell lysate; also called GFP-fused RILP; pEGFP-C1-RILP; not shown: EGFP of the pEGFP-C1 vector

Assay [1] addresses T7-RILP (pEF-T7-RILP) (mouse) (UniProt Q5ND29). Kind of assay: cell-based or functional assay.
Assay [2] addresses T1, T7-RILP(L231A) (pEF-T7-RILP(L231A)) (mouse, UniProt Q5ND29 1-369).
T1 construct: RHD mutant; expressed in transfected RBL cells
T1 sequence (looked up): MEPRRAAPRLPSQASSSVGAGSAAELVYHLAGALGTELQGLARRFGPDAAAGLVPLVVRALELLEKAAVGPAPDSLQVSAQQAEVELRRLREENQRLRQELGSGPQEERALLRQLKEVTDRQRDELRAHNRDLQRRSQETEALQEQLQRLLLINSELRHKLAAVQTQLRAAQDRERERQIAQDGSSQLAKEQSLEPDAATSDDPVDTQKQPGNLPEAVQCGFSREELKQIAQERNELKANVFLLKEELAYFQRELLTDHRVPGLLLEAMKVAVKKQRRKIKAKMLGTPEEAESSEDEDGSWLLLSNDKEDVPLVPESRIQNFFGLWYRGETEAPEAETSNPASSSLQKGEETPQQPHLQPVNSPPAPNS
Kind of assay: cell-based or functional assay.

The target of assay [3] is T2, T7-RILP(E233A) (pEF-T7-RILP(E233A)) (mouse, UniProt Q5ND29 1-369).
T2 construct: RHD mutant; expressed in transfected RBL cells
T2 sequence (looked up): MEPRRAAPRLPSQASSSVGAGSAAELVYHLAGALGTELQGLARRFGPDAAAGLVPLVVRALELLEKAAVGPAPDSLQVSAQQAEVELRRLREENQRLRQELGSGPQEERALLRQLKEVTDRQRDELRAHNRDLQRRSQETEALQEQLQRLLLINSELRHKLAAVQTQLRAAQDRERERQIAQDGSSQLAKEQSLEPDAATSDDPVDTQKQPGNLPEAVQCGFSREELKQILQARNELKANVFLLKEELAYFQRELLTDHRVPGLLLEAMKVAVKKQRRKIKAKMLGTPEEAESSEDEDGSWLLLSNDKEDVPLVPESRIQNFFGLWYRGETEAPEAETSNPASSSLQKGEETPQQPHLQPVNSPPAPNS
Kind of assay: GST-Rab12 pulldown from RBL cell lysates with GTPgammaS, anti-T7 immunoblot. How it is done:
(§1) Bound proteins were eluted by sample buffer, and analyzed by SDS-PAGE and immunoblotting, using monoclonal antibodies directed against T7. Input=10% of total protein. A representative blot is shown. […] The results are the average pulldown±SEM derived from three independent experiments. *P[(T7-RILP/T7-RILP(L231A)]=0.0480, *P[T7-RILP/T7-RILP(E233A)]=0.0498.
(§2) Pulldown assays were performed as previously described 2. Briefly, 20 μg of GST fusion proteins or control GST immobilized on Glutathione Agarose beads were incubated for 18 hours at 4° C. with RBL cell lysates (500 μg) prepared in buffer C (50 mM Hepes pH 7.4, 150 mM NaCl, 1 mM MgCl₂, 1% TritonX100, 1 mM PMSF, protease inhibitor mixture, 2 mM Na₃VO₄) in the presence of 0.5 mM GTPγS. At the end of the incubation period, beads were sedimented by centrifugation at 5000×g for 5 minutes at 4° C., washed 4 times in buffer C with 0.2% TritonX100, and finally suspended in sample buffer, boiled for 7 minutes, and subjected to SDS-PAGE and immunoblotting. In pulldown experiments of endogenous phosphoRab12, cell lysates were prepared in buffer D (50 mM Hepes pH 7.4, 150 mM NaCl, 1 mM MgCl₂, 1% TritonX100, 1 mM PMSF, protease inhibitor mixture, 2 mM Na₃VO₄, 10 mM NaPPi and 80 mM β-glycerophosphate) and the pulldown assay was conducted in the absence of GTPγS. Beads were washed in buffer D with 0.2% TritonX100.
(In western blotting, separated proteins are transferred to a membrane and probed.)

The target in assay [4] is T1, T7-RILP(L231A) (pEF-T7-RILP(L231A)). The description is as above. As for the experimental part: as §1, §2
Assay [5] addresses T3, T7-RILP-L1 (pEF-T7-RILP-L1) (mouse, UniProt Q9JJC6 1-406).
T3 construct: The pEF-T7 plasmid was 'prepared as previously described'; also called T7-tagged RILP-L1; RILP-like 1
T3 sequence (looked up): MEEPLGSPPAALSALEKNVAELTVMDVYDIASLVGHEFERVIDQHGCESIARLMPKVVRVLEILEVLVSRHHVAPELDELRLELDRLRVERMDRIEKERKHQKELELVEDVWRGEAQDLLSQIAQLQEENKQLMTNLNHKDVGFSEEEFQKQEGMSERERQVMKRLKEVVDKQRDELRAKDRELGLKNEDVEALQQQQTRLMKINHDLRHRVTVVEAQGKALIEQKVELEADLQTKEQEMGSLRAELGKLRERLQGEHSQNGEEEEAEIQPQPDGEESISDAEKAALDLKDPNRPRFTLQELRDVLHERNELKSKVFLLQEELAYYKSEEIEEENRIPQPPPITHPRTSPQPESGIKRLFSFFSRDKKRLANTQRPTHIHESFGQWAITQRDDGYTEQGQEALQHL
Put plainly: co-immunoprecipitation from co-transfected RBL cell lysates, IP anti-GFP, blot anti-T7. As for the experimental part:
(§3) FIGS. 1A, 1B show the results of immunoprecipitations in which cell lysates derived from the rat mast cell line RBL-2H3, herein referred to as RBL cells, that were co-transfected with 17.5 μg of pEGFP plasmid encoding either RILP, RILP-L1 or RILP-L2 and 17.5 μg of pEF plasmid encoding either T7-RILP, T7-RILP-L1 or T7-RILP-L2, as indicated, were subjected to immunoprecipitation with rabbit polyclonal antibodies directed against GFP. FIGS. 1C, 1D show the results of immunoprecipitations in which the RBL cell lysates described above were subjected to immunoprecipitation with mouse monoclonal antibodies directed against the T7 epitope. Immune complexes were then analyzed by SDS-PAGE and immunoblotting with mouse monoclonal anti T7 antibodies, followed by reprobing with polyclonal anti GFP antibodies (FIGS. 1A, 1B), or with polyclonal anti GFP antibodies followed by reprobing with monoclonal anti T7 antibodies (FIGS. 1C, 1D), as indicated. Input=10% of total protein.
(§4) RBL cell lysates (500 μg) prepared in buffer A (50 mM Hepes pH 7.4, 250 mM NaCl, 1 mM MgCl₂, 1% Triton X-100, protease inhibitor mixture, 1 mM PMSF, 2 mM Na₃VO₄) were incubated overnight at 4° C. with either rabbit polyclonal anti-GFP antibodies (2 μg) or mouse monoclonal anti-T7 antibodies (1 μg). Protein A/G-Sepharose (50% v/v) was then added for 1.5 h at 4° C. Immune complexes were collected, washed three times with buffer B (50 mM Hepes pH 7.4, 150 mM NaCl, 1 mM MgCl₂, 0.2% Triton X-100, protease inhibitor mixture, 1 mM PMSF, 2 mM Na₃VO₄), and resuspended in 1× sample buffer, and boiled for 7 min. Proteins were resolved by SDS-PAGE and analyzed by immunoblotting with the desired antibodies.

Assay [6] concerns the target T4, endogenous Rab12 of RBL cells (rat, UniProt P35284 49-291, limits assumed).
T4 construct: Total Rab12 pulled down from cell lysates (blot reprobed with anti-Rab12)
T4 sequence (looked up): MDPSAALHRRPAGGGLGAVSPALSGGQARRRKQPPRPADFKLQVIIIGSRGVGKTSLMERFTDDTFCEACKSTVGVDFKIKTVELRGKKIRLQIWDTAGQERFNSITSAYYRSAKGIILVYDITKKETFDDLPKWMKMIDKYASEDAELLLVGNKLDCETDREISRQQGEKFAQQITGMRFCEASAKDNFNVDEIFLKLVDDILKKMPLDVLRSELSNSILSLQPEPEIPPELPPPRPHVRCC
Kind of assay: GST pulldown of endogenous Rab12 from RBL cell lysates, anti-Rab12 immunoblot. As for the experimental part: Cells were then lysed and 500 μg of cell lysate were incubated overnight at 4° C. with either GST, GST-RILP, GST-RILP-L1 or GST-RILP-L2, immobilized on glutathione agarose beads, as indicated. At the end of the incubation period, beads were sedimented by centrifugation at 5000×g for 5 minutes at 4° C., washed four times with buffer containing 50 mM Hepes pH 7.4, 150 mM NaCl, 1 mM MgCl₂, 0.2% Triton X-100, protease inhibitor mixture, 1 mM PMSF, 2 mM Na₃VO₄, 10 mM NaPPi and 80 mM β-glycerophosphate and suspended in 1× sample buffer and boiled for 7 minutes. Proteins were resolved by SDS-PAGE and analyzed by immunoblotting with the anti-phosphoRab12 antibodies, followed by reprobing with anti Rab12 antibodies, as indicated. Representative blots are shown. Similar results were obtained in two separate experiments.
Next, it was assessed whether […] any impact on Rab12 interactions with its RILP family effectors. To this end, lysates derived from resting RBL cells or RBL cells that were triggered with either IgE/Ag or Ion/TPA, were subjected to pulldown assays by chimeric proteins consisting of GST-fused to either RILP, RILP-L1, or RILP-L2, or control GST. […] Therefore, under these conditions, the efficacy of Rab12-effector interactions was RILP-L1>RILP>>>RILP-L2.

For assay [7], the target named is B2. Kind of assay: co-immunoprecipitation from co-transfected RBL cell lysates, IP anti-GFP, blot anti-T7. How it is done: as §3, §4
Assay [8] addresses T5, GFP-RILP-L1 (mouse RILP-like 1 in pEGFP-C1) (mouse, UniProt Q9JJC6 1-406).
T5 construct: Expressed in transfected RBL cells; tested in cell lysate; also called pEGFP-C1-RILP-L1; not shown: EGFP of the pEGFP-C1 vector
T5 sequence (looked up): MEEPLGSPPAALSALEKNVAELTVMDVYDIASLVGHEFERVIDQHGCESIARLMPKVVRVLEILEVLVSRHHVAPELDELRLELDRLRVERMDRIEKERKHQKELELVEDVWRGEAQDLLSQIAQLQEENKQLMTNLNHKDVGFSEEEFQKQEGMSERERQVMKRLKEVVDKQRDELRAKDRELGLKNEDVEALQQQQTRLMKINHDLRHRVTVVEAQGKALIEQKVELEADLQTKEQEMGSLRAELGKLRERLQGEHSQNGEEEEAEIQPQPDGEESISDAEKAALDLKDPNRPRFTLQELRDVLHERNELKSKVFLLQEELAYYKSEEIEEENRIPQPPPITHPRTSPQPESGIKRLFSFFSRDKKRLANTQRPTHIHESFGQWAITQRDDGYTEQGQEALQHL
The description is as above. As for the experimental part: as §3, §4

In assay [1], “GFP-Rab12 (pEGFP-C1-Rab12) (from UniProt P35283 49-291)” came in with an incidence of cells with perinuclear secretory granules (NPY-mRFP), confocal microscopy of RBL cells of 99%. The incidence of cells with scattered secretory granules (NPY-mRFP), confocal microscopy of RBL cells in assay [2] worked out at 97%.

B1: GST-Rab12 (pGEX-4T-3-Rab12) (other, mouse, UniProt P35283 49-291, looked up)
chain: MDPSAALHRRPAGGSLGAVSPALSGGQARRRKQPPRPADFKLQVIIIGSRGVGKTSLMERFTDDTFCEACKSTVGVDFKIKTVELRGKKIRLQIWDTAGQERFNSITSAYYRSAKGIILVYDITKKETFDDLPKWMKMIDKYASEDAELLLVGNKLDCETDREISRQQGEKFAQQITGMRFCEASAKDNFNVDEIFLKLVDDILKKMPLDVLRNELSNSILSLQPEPEIPPELPPPRPHVRCC
notes: Immobilized on glutathione agarose beads; pulldown in the presence of 0.5 mM GTPgammaS; also called immobilized Rab12; not shown: glutathione S-transferase (GST) encoded by the pGEX-4T-3 vector
Turning to B1, the binding result in assay [3] and in assay [4] was “no binding” throughout.
Regarding B2, the binding result in assay [5] is listed as “no binding”.

B3: GST-RILP-L2 (pGEX-4T-3-RILP-L2) (other, mouse, UniProt Q99LE1 1-197, looked up)
chain: MEDHPVREEEDGEEDEGALAKSPLQLTTDDVYDISYVVGRELMALGSDPRVTRLQFKIVRVMEMLETLVNEGSLAVEELRMERDNLKQEVEGLRKAGVSGAQVNLGPDKMVVDLTDPNRPRFTLQELREVLQERNKLKSQLLLVQEELQCYRSGLLPPRETPGGRREKDAVVAMGNGEKEERTIMKKLFSFRSGKHT
notes: Immobilized on glutathione agarose beads; not shown: glutathione S-transferase (GST) encoded by the pGEX-4T-3 vector
As for B3, the “fold increase in Rab12 pulldown, Ion/TPA-triggered against resting cells” value in assay [6] came to 4 fold.

B4: T7-RILP-L2 (pEF-T7-RILP-L2) (other, mouse, UniProt Q99LE1 1-197, looked up, not shown: small tags and cut ends)
chain: MEDHPVREEEDGEEDEGALAKSPLQLTTDDVYDISYVVGRELMALGSDPRVTRLQFKIVRVMEMLETLVNEGSLAVEELRMERDNLKQEVEGLRKAGVSGAQVNLGPDKMVVDLTDPNRPRFTLQELREVLQERNKLKSQLLLVQEELQCYRSGLLPPRETPGGRREKDAVVAMGNGEKEERTIMKKLFSFRSGKHT
notes: The pEF-T7 plasmid was 'prepared as previously described'; also called T7-tagged RILP-L2; RILP-like 2
B4: the binding result in assay [7] and in assay [8] was “no binding” in each case.

Source of the values: patent US20230374068A1, “COMPOSITIONS AND METHODS FOR TREATING A DISEASE” (RAMOT AT TEL AVIV UNIVERSITY LTD., priority 2021, published 2023).
